From US10479836B2, “Method for treating pulmonary hypertension with interleukin-5 receptor antibody” (University of Toyama, priority 2015, dated 2019)
Entries after “also recorded” stand apart in the source; their conditions may differ.

Key:
[1] = tested on: mouse IL-5Rα-expressing cell Y16; experiment: Antigen binding activity of chimeric antibodies on Y16 cells by FCM; format: cell-based; conditions: FIG. 12
Method: The chimeric antibodies prepared in Example 8 were evaluated for their antigen binding activity using a mouse-derived cell line Y16 expressing IL-5R. The Y16 cells were washed with SM (staining medium containing 2% FCS, 0.05% NaN3, and 1 mM EDTA in PBS). Then, Mouse BD Fc Block (manufactured by Becton, Dickinson and Company) was added thereto at a concentration of 5 μg/mL, and the mixture was left standing at 4° C. for 30 min. The cells were inoculated at a cell number of 1×10^5 cells/well to a 96-well U-bottom plate, and each chimeric antibody adjusted to a final concentration of 10000, 2500, 625, 156, 39, 10, 2.4, or 0.6 ng/mL was added thereto, followed by reaction at 4° C. for 60 min. The rat/human chimeric control antibodies used were rtDNP-1 hIgG1 (DF) antibody (KM8808) and rtDNP-1 hIgG1 (N297A) antibody (KM6161). The nucleotide sequences and amino acid sequences of the variable regions of each isotype control antibody are shown in SEQ ID NOs: 29 to 34. After washing of the cells with SM, Goat F(ab′)2 Anti-Human IgG PE (γ chain specific) (manufactured by Southern Biotech) diluted 500-fold with SM was added thereto, followed by reaction at 4° C. for 60 min. After washing of the cells with SM, the cells were resuspended in 50 μL of SM. Fluorescence intensity was measured by FCM (flow cytometer FACS Canto II (manufactured by Becton, Dickinson and Company)). The data was analyzed using FlowJo 7.65 (manufactured by Tomy Digital Biology Co., Ltd.) to calculate a Geomean value at each concentration.

Y16 cells [2] = experiment: ADCC activity against Y16 cells with human PBMC effector cells (LDH release); format: cell-based, mouse; conditions: 4 hrs, 0.0001-1000 ng/mL (control antibodies 1000 ng/mL), FIG. 13
Method: The H7 recombinant chimeric antibodies prepared in Example 8 were evaluated for their ADCC activity against Y16 cells using frozen human peripheral blood mononuclear cells (PBMCs) (manufactured by AllCells) as effector cells. The frozen human PBMCs were shake-cultured (37° C., 5% CO2, overnight) in RPMI1640 medium containing 5% FBS. The Y16 cells (target cells) and the human PBMCs (effector cells) were washed with ADCC assay medium (RPIM1640 containing 5% dialyzed FBS) and adjusted to cell densities of 2×10^5 cells/mL and 3×10^6 cells/mL, respectively. The cells were washed twice with a medium and then suspended into cell densities of 4×10^5 cells/mL. Each chimeric antibody adjusted to a final concentration of 0.0001, 0.001, 0.01, 0.1, 1, 10, 100, or 1000 ng/mL, the target cells (2×10^4 cells/well), and the effector cells (5×10^5 cells/well) were added in this order at 50 μL/well to a 96-well U-bottom plate. The control antibodies used were the rtDNP-1 hIgG1 (DF) antibody (KM8808) and the rtDNP-1 hIgG1 (N297A) antibody (KM6161) of Example 10 adjusted to a final concentration of 1000 ng/mL. The plate was centrifuged (500 rpm, 5 min) and then left standing in an incubator (37° C., 5% CO2, 4 hrs). The plate was centrifuged (1500 rpm, 5 min) to recover a supernatant at 50 μL/well into a 96-well Flat-bottom plate (manufactured by Sumitomo Bakelite Co., Ltd.). Lactate dehydrogenase (LDH) activity in the supernatant was detected using CytoTox 96 Non-Radioactive Cytotoxicity Assay (manufactured by Promega Corp.). Absorbance at 490 nm was measured using a plate reader SPECTRA MAX 340 PC384 (manufactured by Molecular Devices, LLC). The ADCC activity (%) was calculated according to the following equation using background-corrected measurement values. Cytotoxicity=[[Absorbance of the sample]−[Absorbance derived from spontaneous release from the target cells and the effector cells]]/[[Absorbance derived from total release from the target cells]−[Absorbance derived from spontaneous release from the target cells]]

Y16 cells [3] = experiment: IL-5 signal inhibition: rIL-5-dependent Y16 growth inhibition (WST-1); format: cell-based, mouse; conditions: rIL-5 5 units/mL, 24 hours; for inhibition of Y16 cell growth (IL-5 signal-inhibiting function): antibody 0.01-10 μg/mL, FIG. 14
Method: Whether or not the various recombinant chimeric antibodies prepared in Example 8 would have the function of inhibiting IL-5 signals was studied by using Y16 growth inhibition as an index. 2×10^3 Y16 cells were cultured for 24 hours in the presence or absence of rIL-5 (5 units/mL) after addition of the Cys substitution-containing core fucose-unlinked H7 recombinant chimeric antibody H7 (CS) hIgG1 (DF) (H7-2), the N-linked sugar chain-deficient H7 recombinant chimeric antibody H7 (CS) hIgG1 (N297A) (H7-4), and the anti-DNP antibodies KM8808 and KM6161 at a concentration of 0.01, 0.1, 1, or 10 μg/mL. 24 hours later, these antibodies were evaluated for their ability to inhibit growth using Premix WST-1 Cell Proliferation Assay System (manufactured by Takara Bio Inc.). The culture time after addition of the reagent of the cell growth assay kit was set to 1 hour.

[4] = tested on: eosinophils (CD45-positive, Gr1-negative, Siglec-F-positive cells); experiment: IL-33-induced increase of lung eosinophils, FCM of lung cell suspension; format: in vivo, mouse; conditions: IL-5+/+ mice, 100 μg antibody i.p. five times; for inhibition of IL-33-induced increase in the number of eosinophils: FCM day 21, FIG. 16; for abundance ratio of eosinophils, in absence of IL-33 (PBS): PBS instead of IL-33; for abundance ratio of eosinophils, in absence of IL-33 (PBS) / abundance ratio of eosinophils, in presence of IL-33: lung cells day 21, FCM; for abundance ratio of eosinophils, in presence of IL-33: rIL-33 days 0, 7, 14
Method: (§1) In an experimental system similar to that of Example 3, in order to confirm the inhibitory effects of anti-IL-5R antibodies and anti-IL-5 neutralizing antibodies on vascular wall thickening, 100 μg of the H7 (CS) hIgG1 (DF) (H7-2) antibody, the H7 (CS) hIgG1 (N297A) (H7-4) antibody, an anti-IL-5 antibody (ligand-neutralizing antibody, clone name: TRFK5), the anti-DNP antibody KM8808, the anti-DNP antibody KM6161, or rat IgG (clone name: HRPN) was intraperitoneally administered to each IL-5^+/+ mouse a total of five times (3 consecutive days (three times) from two days before the first rIL-33 administration day (day 0), once on the second rIL-33 administration day (day 7), and once on the third rIL-33 administration day (day 14)) (FIG. 15). Then, on day 21, lung tissues were resected and evaluated by FCM and immunofluorescent staining.
In the FCM, 1×10^6 cells in the lung cell suspension were stained with a PE-Cy7-conjugated anti-CD45 antibody (30-F11), an APC-conjugated anti-Gr1 antibody (RB6-8C5), and a PE-conjugated anti-Siglec-F antibody (E50-2440) (all manufactured by BD Biosciences). CD45-positive, Gr1-negative, and Siglec-F-positive cells were regarded as eosinophils, and the influence of antibody administration was observed.

[5] = tested on: IL-33-induced vascular wall thickening (SMA-positive cells); experiment: IL-33-induced vascular wall thickening, immunofluorescent staining of lung tissue; format: in vivo, mouse; conditions: IL-5+/+ mice, 100 μg antibody i.p. five times; lung tissue day 21
Method: as §1
In the immunofluorescent staining, the tissues were sliced into 30 μm, and slides were prepared and then stained with an Alexa 488-conjugated anti-SMA antibody (1A4) (manufactured by Abcam plc) and an Alexa 647-conjugated anti-Siglec-F antibody (E50-2440). The nuclei of the cells were stained with Hoechst 33342 (manufactured by Life Technologies Corp.). Here, the degree of the growth of SMA-positive cells (primary media-constituting cells) was observed.

| Molecule | binding ability to Y16 cells, H7-1 and H7-2 compared [1] | ADCC activity against Y16 cells (Y16 cells [2]) | Y16 growth inhibiting ability, H7-2 and H7-4 compared (Y16 cells [3]) | inhibition of Y16 cell growth (IL-5 signal-inhibiting function) (Y16 cells [3]) | inhibition of IL-33-induced increase in the number of eosinophils [4] | abundance ratio of eosinophils, in absence of IL-33 (PBS) [4] | abundance ratio of eosinophils, in presence of IL-33 [4] | inhibition of IL-33-induced vascular wall thickening (immunofluorescent staining) [5] |
| --- | --- | --- | --- | --- | --- | --- | --- | --- |
| H7-2: core fucose-deficient H7 chimeric antibody, human IgG1, with Cys at VL position 87 replaced with Ser (antibody, V domains shown) VH: EVQLQQSGAELGKPGTSVKLSCKVSGYNIKNTYIHWVNQRPGKGLEWIGRIDPANGNPIYAEKFKNKATLTADTSSNTAYMQLSQLKSDDTAIYFCAMHRGHSMGPGPYVMDAWGQGASVTVSS VL: DIQMTQSPASLSASLGETVTIECRTSEDIYNGLAWYQQKPGKSPQLLIYNANSLHTGVPSRFSGSGSGTQYSLKINSLQSEDVASYSCQQYSNYPFTFGSGTKLEIK | slight rise in binding ability | exhibited antibody concentration-dependent ADCC activity | equivalent inhibiting ability | inhibited the growth of the Y16 cells in an antibody concentration-dependent manner | inhibited almost completely; also recorded: superior in eosinophil growth-inhibiting function | 0.24% | 1.58% | inhibited most strongly; also recorded: vascular wall thickening inhibitory effect superior to H7-4 or the IL-5 ligand-neutralizing antibody |
| H7-4: N-linked sugar chain-deficient H7 chimeric antibody, human IgG1 (N297A), with Cys at VL position 87 replaced with Ser (antibody, V domains shown) VH: EVQLQQSGAELGKPGTSVKLSCKVSGYNIKNTYIHWVNQRPGKGLEWIGRIDPANGNPIYAEKFKNKATLTADTSSNTAYMQLSQLKSDDTAIYFCAMHRGHSMGPGPYVMDAWGQGASVTVSS VL: DIQMTQSPASLSASLGETVTIECRTSEDIYNGLAWYQQKPGKSPQLLIYNANSLHTGVPSRFSGSGSGTQYSLKINSLQSEDVASYSCQQYSNYPFTFGSGTKLEIK |  | none | equivalent inhibiting ability | inhibited the growth of the Y16 cells in an antibody concentration-dependent manner | at a degree poorer than that of H7-2 | 0.17% | 29.1% | at a degree poorer than that of H7-2 |
| KM8808: core fucose-deficient anti-dinitrophenol (DNP) rat/human chimeric antibody, isotype control (antibody, V domains shown) VH: EVQLQESGPGLVKPSQSLSLTCSVTGYSITSGYWNWIRKFPGNKMEWIGYISYSGSTYYNPSLKSRISITRDTSKNQFFLQLNSVTTEDTATYYCARWGVRHYFDYWGQGVMATVSS VL: DVVMTQTPVSLPVSLGGQASISCRSSQSLANSYGNTYLSWYLQKPGQSPQLLIYRVSNTFSGVPDRFSGSGSGTDFTLKISRVEPEDLGDYYCLQGTHQPYTFGAGTKLELK |  | none |  | not observed | not inhibited | 1.19% | 48.3% | not observed |
| KM6161: N-linked sugar chain-deficient anti-DNP rat/human chimeric antibody containing N297A substitution, isotype control (antibody, V domains shown) VH: EVQLQESGPGLVKPSQSLSLTCSVTGYSITSGYWNWIRKFPGNKMEWIGYISYSGSTYYNPSLKSRISITRDTSKNQFFLQLNSVTTEDTATYYCARWGVRHYFDYWGQGVMATVSS VL: DVVMTQTPVSLPVSLGGQASISCRSSQSLANSYGNTYLSWYLQKPGQSPQLLIYRVSNTFSGVPDRFSGSGSGTDFTLKISRVEPEDLGDYYCLQGTHQPYTFGAGTKLELK |  | none |  | not observed | not inhibited | 0.92% | 52.4% | not observed |
